Source: patent US20260250410A1 (SICHUAN HUIYU PHARMACEUTICAL, published 2026)

Target: T1, HuCDCP1-C (human, UniProt Q9H5V8 30-667)
T1 construct: range 30-667; expressed in HEK-293T, purified by Fc/his tag; also called human CDCP1-C; full-length extracellular domain of human CDCP1; not shown: Fc or his tag
T1 sequence (looked up): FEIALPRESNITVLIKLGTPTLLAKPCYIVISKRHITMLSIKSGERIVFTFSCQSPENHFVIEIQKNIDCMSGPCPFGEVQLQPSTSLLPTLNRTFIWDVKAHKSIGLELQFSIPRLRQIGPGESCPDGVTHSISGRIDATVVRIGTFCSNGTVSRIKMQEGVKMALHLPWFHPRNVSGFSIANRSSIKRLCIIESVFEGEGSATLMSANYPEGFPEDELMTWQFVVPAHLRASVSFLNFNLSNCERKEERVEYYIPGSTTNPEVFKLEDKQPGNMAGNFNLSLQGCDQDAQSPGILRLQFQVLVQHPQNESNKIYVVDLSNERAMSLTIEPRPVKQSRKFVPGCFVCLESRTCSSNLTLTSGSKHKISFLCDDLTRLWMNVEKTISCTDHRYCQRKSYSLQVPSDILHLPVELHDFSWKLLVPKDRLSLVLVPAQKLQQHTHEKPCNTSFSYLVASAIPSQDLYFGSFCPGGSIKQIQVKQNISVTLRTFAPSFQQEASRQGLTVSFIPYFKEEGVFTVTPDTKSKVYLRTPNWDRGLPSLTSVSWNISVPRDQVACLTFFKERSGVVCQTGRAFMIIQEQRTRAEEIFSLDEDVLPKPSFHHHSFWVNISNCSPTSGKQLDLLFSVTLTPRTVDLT
Test: SPR (Caterra), antigen immobilized
Protocol: The humanized anti-CDCP1 antibodies obtained from Example 11 were subjected to gene cloning, constructed into pTT5 expression vector for a small amount of expression in CHO cells (Expi-CHOS: Gibco A29127), and purified with an Fc affinity column (AT Protein A Diamond Plus. No. AA402312). Antibody purity was analyzed by HPLC and determined by Nanodrop. High-throughput affinity assay was carried out for a small amount of antibodies by Caterra.

B1: 1CP-112 (antibody, human IgG1, kappa, V domains shown)
VH: QVQLVQSGSELKKPGASVKVSCKASGYTLTDFSMHWVRQAPGQGLEWMGWINTETGAPTYADDFKGRFVFSLDTSVSTAYLQISSLKAEDTAVYYCSRGRDYDPHFDYWGQGTLVTVSS
VL: EIVLTQSPATLSLSPGERATLSCRASQSISDFLHWYQQKPGQAPRLLIKYASQSISGIPARFSGSGPGSDFTLTISSVEPEDFAVYYCQSAHSFPYTFGQGTKLEIKR
notes: humanized 8E5, human IgG1 kappa
Kd: 0.368 nM
koff: 5e-05 s⁻¹
kon: 136000 M⁻¹ s⁻¹

B2: 1CP-113 (antibody, human IgG1, kappa, V domains shown)
VH: QVQLVQSGSELKKPGASVKVSCKASGYTLTDFSMHWVRQAPGQGLEWMGWINTETGAPTYADDFKGRFVLSLDTSVSTAYLQISSLKAEDTAVYYCSRGRDYDPHFDYWGQGTLVTVSS
VL: EIVLTQSPATLSLSPGERATLSCRASQSISDFLHWYQQKPGQAPRLLIKYASQSISGIPARFSGSGPGSDFTLTISSVEPEDFAVYYCQSAHSFPYTFGQGTKLEIKR
notes: as for B1
Kd: 0.411 nM
koff: 5.9e-05 s⁻¹
kon: 143000 M⁻¹ s⁻¹

B3: 1CP-114 (antibody, human IgG1, kappa, V domains shown)
VH: QVQLVQSGSELKKPGESVKVSCKASGYTLTDFSMHWVRQAPGQGLEWMGWINTETGAPTYADDFKGRFVLSLDTSVSTAYLQISSLKSEDTAVYYCSRGRDYDPHFDYWGQGTLVTVSS
VL: EIVLTQSPATLSLSPGERATLSCRASQSISDFLHWYQQKPGQAPRLLIKYASQSISGIPARFSGSGPGSDFTLTISSVEPEDFAVYYCQSAHSFPYTFGQGTKLEIKR
notes: as for B1
Kd: 15.2 nM
koff: 0.00246 s⁻¹
kon: 161000 M⁻¹ s⁻¹

B4: 1CP-116 (antibody, human IgG1, kappa, V domains shown)
VH: QVQLVQSGSELKKPGASVKVSCKASGYTLTDFSMHWVRQAPGQGLEWMGWINTETGAPTYADDFKGRFVFSLDTSVSTAYLQISSLKAEDTAVYYCSRGRDYDPHFDYWGQGTLVTVSS
VL: EIVLTQSPATLSLSPGERATLSCRASQSISDFLHWYQQKPGQSPRLLIKYASQSISGIPARFSGSGSGSDFTLTISSVEPEDFAVYYCQSAHSFPYTFGQGTKLEIKR
notes: as for B1
Kd: 0.359 nM
koff: 4.59e-05 s⁻¹
kon: 128000 M⁻¹ s⁻¹

B5: 1CP-118 (antibody, human IgG1, kappa, V domains shown)
VH: QVQLVQSGSELKKPGESVKVSCKASGYTLTDFSMHWVRQAPGQGLEWMGWINTETGAPTYADDFKGRFVLSLDTSVSTAYLQISSLKSEDTAVYYCSRGRDYDPHFDYWGQGTLVTVSS
VL: EIVLTQSPATLSLSPGERATLSCRASQSISDFLHWYQQKPGQSPRLLIKYASQSISGIPARFSGSGSGSDFTLTISSVEPEDFAVYYCQSAHSFPYTFGQGTKLEIKR
notes: as for B1
Kd: 13.4 nM
koff: 0.00225 s⁻¹
kon: 168000 M⁻¹ s⁻¹

B6: 1CP-119 (antibody, human IgG1, kappa, V domains shown)
VH: QVQLQQSGSELKKPGESVKLSCKASGYTLTDFSMHWVRQAPGQGLKWMGWINTETGAPTYADDFKGRFVFSLDTSVSMAYLQISSLKSEDTAVYYCSRGRDYDPHFDYWGQGTLVTVSS
VL: EIVLTQSPATLSLSPGERATLSCRASQSISDFLHWYQQKPGQSPRLLIKYASQSISGIPARFSGSGSGSDFTLTISSVEPEDFAVYYCQSAHSFPYTFGQGTKLEIKR
notes: as for B1
Kd: 5.51 nM
koff: 0.00124 s⁻¹
kon: 226000 M⁻¹ s⁻¹

B7: 1CP-120 (antibody, human IgG1, kappa, V domains shown)
VH: QVQLVQSGSELKKPGASVKVSCKASGYTLTDFSMHWVRQAPGQGLEWMGWINTETGAPTYADDFKGRFVFSLDTSVSTAYLQISSLKAEDTAVYYCSRGRDYDPHFDYWGQGTLVTVSS
VL: EIVLTQSPATLSLSPGERATLSCRASQSISDFLHWYQQKSGQSPRLLIKYASQSISGIPARFSGSGSGSDFTLTISSVEPEDFAVYYCQSAHSFPYTFGQGTKLEIKR
notes: as for B1
Kd: 0.122 nM
koff: 1.7e-05 s⁻¹
kon: 139000 M⁻¹ s⁻¹

B8: 1CP-122 (antibody, human IgG1, kappa, V domains shown)
VH: QVQLVQSGSELKKPGESVKVSCKASGYTLTDFSMHWVRQAPGQGLEWMGWINTETGAPTYADDFKGRFVLSLDTSVSTAYLQISSLKSEDTAVYYCSRGRDYDPHFDYWGQGTLVTVSS
VL: EIVLTQSPATLSLSPGERATLSCRASQSISDFLHWYQQKSGQSPRLLIKYASQSISGIPARFSGSGSGSDFTLTISSVEPEDFAVYYCQSAHSFPYTFGQGTKLEIKR
notes: as for B1
Kd: 12.5 nM
koff: 0.00209 s⁻¹
kon: 167000 M⁻¹ s⁻¹

B9: 1CP-123 (antibody, human IgG1, kappa, V domains shown)
VH: QVQLQQSGSELKKPGESVKLSCKASGYTLTDFSMHWVRQAPGQGLKWMGWINTETGAPTYADDFKGRFVFSLDTSVSMAYLQISSLKSEDTAVYYCSRGRDYDPHFDYWGQGTLVTVSS
VL: EIVLTQSPATLSLSPGERATLSCRASQSISDFLHWYQQKSGQSPRLLIKYASQSISGIPARFSGSGSGSDFTLTISSVEPEDFAVYYCQSAHSFPYTFGQGTKLEIKR
notes: as for B1
Kd: 11.4 nM
koff: 0.00227 s⁻¹
kon: 199000 M⁻¹ s⁻¹

B10: 1CP-126 (antibody, human IgG1, kappa, V domains shown)
VH: QVQLVQSGAEVKKPGASVKVSCKASGYNFISYWLHWVRQAPGQGLEWMGGIYPGNTDTTYNQKFKGRVTMTADTSTSTAYMELSSLRSEDTAVYYCIRYDYDRGMDYWGQGTLVTVSS
VL: DIQMTQSPSSLSASVGDRVTITCRASEDIYYRLAWYQQKPGKAPKLLISGATALETGVPSRFSGSGSGKDYTFTISSLQPEDIATYYCQHYWNIPWTFGQGTKVEIKR
notes: humanized 3C11, human IgG1 kappa
Kd: 6.78 nM
koff: 0.00143 s⁻¹
kon: 211000 M⁻¹ s⁻¹

B11: 1CP-127 (antibody, human IgG1, kappa, V domains shown)
VH: QVQLVQSGAEVKKPGASVKVSCKASGYNFISYWLHWVRQAPGQGLEWMGGIYPGNTDTTYNQKFKGRVTVTAVTSTSTVYMELSSLRSEDTAVYYCIRYDYDRGMDYWGQGTLVTVSS
VL: DIQMTQSPSSLSASVGDRVTITCRASEDIYYRLAWYQQKPGKAPKLLISGATALETGVPSRFSGSGSGKDYTFTISSLQPEDIATYYCQHYWNIPWTFGQGTKVEIKR
notes: as for B10
Kd: 9.66 nM
koff: 0.00198 s⁻¹
kon: 205000 M⁻¹ s⁻¹

B12: 1CP-131 (antibody, human IgG1, kappa, V domains shown)
VH: QVQLVQSGAEVKKPGASVKVSCKASGYNFISYWLHWVRQAPGQGLEWMGGIYPGNTDTTYNQKFKGRVTVTAVTSTSTVYMELSSLRSEDTAVYYCIRYDYDRGMDYWGQGTLVTVSS
VL: DIQMTQSPSSLSASVGDRVTITCRASEDIYYRLAWYQQKPGKAPKLLISGATALETGVPSRFSGSGSGKDYTLTISSLQPEDIATYYCQHYWNIPWTFGQGTKVEIKR
notes: as for B10
Kd: 10.5 nM
koff: 0.002 s⁻¹
kon: 191000 M⁻¹ s⁻¹

B13: 1CP-132 (antibody, human IgG1, kappa, V domains shown)
VH: QVQLVQSGAEVKKPGASVKVSCKASGYNFISYWLHWVRQAPGQGLEWMGGIYPGNTDTTYNQKFKGRVTMTRDTSTSTVYMELSSLRSEDTAVYYCIRYDYDRGMDYWGQGTLVTVSS
VL: DIQMTQSPSSLSASVGDRVTITCRASEDIYYRLAWYQQKPGNAPKLLISGATALETGVPSRFSGSGSGKDYTLTISSLQPEDIATYYCQHYWNIPWTFGQGTKVEIKR
notes: as for B10
Kd: ≤ 0.0713 nM
koff: ≤ 1e-05 s⁻¹
kon: 140000 M⁻¹ s⁻¹

B14: 1CP-133 (antibody, human IgG1, kappa, V domains shown)
VH: QVQLVQSGAEVKKPGASVKVSCKASGYNFISYWLHWVRQAPGQGLEWMGGIYPGNTDTTYNQKFKGRVTMTADTSTSTVYMELSSLRSEDTAVYYCIRYDYDRGMDYWGQGTLVTVSS
VL: DIQMTQSPSSLSASVGDRVTITCRASEDIYYRLAWYQQKPGNAPKLLISGATALETGVPSRFSGSGSGKDYTLTISSLQPEDIATYYCQHYWNIPWTFGQGTKVEIKR
notes: as for B10
Kd: ≤ 0.0546 nM
koff: ≤ 1e-05 s⁻¹
kon: 183000 M⁻¹ s⁻¹

B15: 1CP-134 (antibody, human IgG1, kappa, V domains shown)
VH: QVQLVQSGAEVKKPGASVKVSCKASGYNFISYWLHWVRQAPGQGLEWMGGIYPGNTDTTYNQKFKGRVTMTADTSTSTAYMELSSLRSEDTAVYYCIRYDYDRGMDYWGQGTLVTVSS
VL: DIQMTQSPSSLSASVGDRVTITCRASEDIYYRLAWYQQKPGNAPKLLISGATALETGVPSRFSGSGSGKDYTLTISSLQPEDIATYYCQHYWNIPWTFGQGTKVEIKR
notes: as for B10
Kd: 10.5 nM
koff: 0.00202 s⁻¹
kon: 193000 M⁻¹ s⁻¹

B16: 1CP-135 (antibody, human IgG1, kappa, V domains shown)
VH: QVQLVQSGAEVKKPGASVKVSCKASGYNFISYWLHWVRQAPGQGLEWMGGIYPGNTDTTYNQKFKGRVTVTAVTSTSTVYMELSSLRSEDTAVYYCIRYDYDRGMDYWGQGTLVTVSS
VL: DIQMTQSPSSLSASVGDRVTITCRASEDIYYRLAWYQQKPGNAPKLLISGATALETGVPSRFSGSGSGKDYTLTISSLQPEDIATYYCQHYWNIPWTFGQGTKVEIKR
notes: as for B10
Kd: 4.8 nM
koff: 0.0012 s⁻¹
kon: 249000 M⁻¹ s⁻¹

B17: 1CP-156 (antibody, human IgG1, kappa, V domains shown)
VH: EVQLVESGGGLVQPGRSLRLSCTTSGLTFTHYHMSWVRQAPGKGLEWVAIIRNKAYGYTTDYSASVRGRFTISRDDSKSILYLQMNSLKTEDTAVYYCVREGGYGYDGTFAYWGQGTLVTVSS
VL: DIQMTQSPSSLSASVGDRVTITCRASESVDNYGISFMNWFQQKPGQPPKLLIYAASNQGSGVPSRFSGSGSGTDFTLTISSMQPEDFATYYCQQSKEVPRTFGGGTKVEIKR
notes: humanized 8C9, human IgG1 kappa
Kd: 3.6 nM
koff: 0.000441 s⁻¹
kon: 123000 M⁻¹ s⁻¹
